The text below walks through data of paper PMC6733452.

Common to all, as to assay: cross-linking + ELISA
In test [1] the target is TcpP-HSV (wild-type, from pEK41) (V. cholerae) (UniProt P29485).
Another test addresses TcpP-K102E (V. cholerae) (UniProt P29485).
Another test addresses TcpP-N99D (V. cholerae) (UniProt P29485).

With “ToxR-Y96A (chromosomally expressed) (from UniProt P15795 1-294) (natural protein)”, the percent reduction in TcpP interaction relative to wild-type ToxR in test [1] stood at 40%.
Take “ToxR-L107A (chromosomally expressed) (from UniProt P15795 1-294) (natural protein)”: the percent reduction in TcpP interaction relative to wild-type ToxR in test [1] came to 70%.
For the substance “ToxR-T91A (chromosomally expressed) (from UniProt P15795 1-294) (natural protein)”, the percent reduction in TcpP interaction relative to wild-type ToxR in test [1] stood at 45%.
As for “ToxR (wild-type, expressed from the chromosomal toxR locus) (from UniProt P15795 1-294) (natural protein)”, the percent reduction in ToxR interaction relative to wild-type TcpP-HSV with TcpP-K102E (V. cholerae) and with TcpP-N99D (V. cholerae) was 50% throughout.
Take “ToxR-V97A (chromosomally expressed) (from UniProt P15795 1-294) (natural protein)”: the percent defect in TcpP interaction relative to wild-type ToxR in test [1] is over 60%.
